Data on five molecules can be found in patent publication US6861508B2, “Transcriptional intermediary factor-2” (Institut National de la Sante et de la Recherche Medicale, priority 1996, dated 2005).

Experiment [1] addresses T1, GST-hERα(DEF) (pGEX2T-hERα(DEF), amino acids 282-595) (human, UniProt P03372 282-595).
T1 construct: range 282-595; Bacterially produced; also used 32P-labelled as Far-Western probe; also called GST-ER; GST-ER(DEF); not shown: glutathione-S-transferase (GST) of pGEX2T (Pharmacia)
T1 sequence (looked up): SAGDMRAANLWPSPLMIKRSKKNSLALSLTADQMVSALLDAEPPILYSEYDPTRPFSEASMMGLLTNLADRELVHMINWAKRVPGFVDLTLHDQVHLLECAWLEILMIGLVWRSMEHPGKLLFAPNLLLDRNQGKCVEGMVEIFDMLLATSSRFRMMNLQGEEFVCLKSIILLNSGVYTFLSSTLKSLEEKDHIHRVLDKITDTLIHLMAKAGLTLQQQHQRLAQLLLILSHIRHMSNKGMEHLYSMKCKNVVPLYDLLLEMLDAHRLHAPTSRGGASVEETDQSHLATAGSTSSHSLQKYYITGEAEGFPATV
The experiment in a line: GST pull-down with 35S in-vitro-translated TIF2 polypeptides (FIG. 7a-b).

Experiment [2] addresses T2, GST-hRARα(DEF) (pGEX2T-hRARα(DEF), amino acids 153-462) (human, UniProt P10276 153-462).
T2 construct: range 153-462; Bacterially produced; also called GST-RAR; GST-RARα(DEF); not shown: glutathione-S-transferase (GST) of pGEX2T (Pharmacia)
T2 sequence (looked up): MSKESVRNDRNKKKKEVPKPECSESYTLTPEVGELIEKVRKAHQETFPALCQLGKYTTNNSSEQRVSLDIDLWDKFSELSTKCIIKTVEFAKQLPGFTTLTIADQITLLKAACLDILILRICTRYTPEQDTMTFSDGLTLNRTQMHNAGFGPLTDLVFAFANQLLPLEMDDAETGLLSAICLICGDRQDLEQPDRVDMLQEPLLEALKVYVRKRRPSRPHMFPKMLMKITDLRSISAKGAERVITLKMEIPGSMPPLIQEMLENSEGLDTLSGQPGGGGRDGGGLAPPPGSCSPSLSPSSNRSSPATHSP
The experiment is described as above.

Experiment [3] has as its system GAL4 reporter. The experiment in a line: GAL4 DBD-TIF2 fusion CAT reporter transactivation assay. The note with it: for transcriptional activation of GAL4 reporter by GAL4 DBD fusion: Cos-1 and/or HeLa cells. It is filed as cell-based. How it is done: (a) HeLa cells were cotransfected with 1 μg (17m)5-βG-CAT and 10 μg GAL(1-147) or 1,3 and 10 μg GAL(1-147)-TIF2.1, respectively.
(c) Analysis of the transcriptional activity of GAL-TIF2 fusion proteins. Cos-1 and HeLa cells were transfected with 3 lag of plasmids expressing different regions of TIF2 fised to the DNA-binding domain of the yeast transcription factor GALA together with 1 μg of the (7m)5-G-CAT reporterplasmid. CAT assays were performed as described (Bocquel, M. T. et al., Nucl Acids Res. 17:2581-2595 (1989)). Quantitative data on CAT reporter expression were obtained either by phosphoimager analysis (BAS2000, Fuji) of ^14C-labeled CAT reaction products separated by thin-layer chromatography, or using the CAT ELISA Kit (Boehringer Mannheim). In all cases, CAT activities were normalized to the β-galactosidase concentrations resulting from cotransfection of 1 μg of pCMVPGal (gift from T. Lerouge) as internal control. Fold inductions above the GAL4 DBD value are indicated. The mean and standard deviation of at least three experiments are shown. A representative Western blot, illustrating the expression levels of the GAL4-TIF2 fusion proteins, expressed from 10 μg of the corresponding expression vectors, is shown on the left.
(b) Transcriptional activation of TIF2 AF-1 mutants. Cos-1 and HeLa cells were cotransfected with 3 μg of plasmids expressing different mutants of the TIF2 AF-1 fused to the DNA-binding domain of the yeast transcription factor GAL4 together with 1 μg of the (17m)5-G-CAT reporter plasmid. Fold inductions above the activation seen with the GAL4 DBD alone are indicated. The values represent the mean of at least three experiments.
(a) Transcriptional activation by TIF2.13 and TIF2.13 mutants. Cos-1 and HeLa cells were cotransfected with 3 μg of plasmids expressing the TIF2.13 region and the indicated TIF2.13 mutants fused to the DNA-binding domain of the yeast transcription factor GALA together with 1 μg of the (17m)5-G-CAT reporter plasmid. Fold inductions above the GAL4 DBD 1-fold value are indicated. The mean and standard deviation obtained from at least four experiments are shown. The expression levels of the GAL4-TIF2.13 fusion proteins were confirmed by western blotting (data not shown).
Transient transfections of HeLa and Cos-1 cells were performed as described (Gronemeyer et al., (1987); Bocquel, M. T. et al., Nucl. Acids Res. 17:2581-2595 (1989)).

Experiment [4] concerns ER, RARα and RXRα LBDs. The experiment in a line: GST pull-down of TIF2 polypeptides with NR LBDs. It is filed as binding. The note with it: in vitro, with or without 10^−6 M ligand. How it is done:
(b) Mapping of the nuclear receptor-interacting domain of TIF2.
(c-d) Interaction of TIF2 NID mutants with NRs in vitro. […] For quantification of point mutant interactions, see below.
(e-f) Effect of TIF2 NID point mutations on stimulation of NR AF-2 activity. Cos-1 cells were cotransfected with 1 μg of the (17m)5-TATA-CAT reporter, 0.2 μg of GAL-hERα(EF) or GAL-mRXRα(DE), and 2.5 μg of the TIF2.1 wildtype or mutated fragments, as indicated. […] Each bar represents the mean value obtained from at least three (interaction) or at least four (transactivation) experiments, respectively; standard deviations are indicated. Note that the absolute values for TIF2.1 wildtype activity varied by ±16% when cotransfected with GAL-hERα(EF) and by ±34% when cotransfected with GAL-mRXRα(DE). In the in-vitro-interaction assays, the affinity of the TIF2.1 wildtype standard varied by less than ±25%. Expression levels of TIF2 mutants in the cells were verified by Western blot (not shown) with mouse monoclonal antibody 3Ti3F1, which is directed against an epitope outside the mutated area.
To further delineate the TIF2 NR interaction domain (NID), we studied the interaction between a series of TIF2 deletion mutants and the ER or RARα LBDs, using GST-fusion protein-based in vitro assays. In both cases, an NWD was mapped to the central region of TIF2 (amino acids 624-869 in mutant TIF2.5; see FIGS. 7a and b). No additional NWD could be identified in the N- or C-termini of TIF2 (FIGS. 7a and b; mutants TIF2.0, TIF2.2 and TIF2.7). Note that, in contrast, SRC-1, a paralogue of TIF2, apparently harbours two distinct non-contiguous NIDs located in the central and C-terminal regions (Onate, S. A. et al., Science 270:1354-1357 (1995), Yao, T. P. et al., Proc. Natl. Acad. Sci. USA 93:10626-10631 (1996); Zhu, Y. et al., Gene Epression 6:185-195 (1996)).

In experiment [5] the test system is GAL-CBP. The experiment in a line: two hybrid analysis of CBP-TIF2 interaction in HeLa cells. Type of experiment: cell-based. How it is done: (e) Two hybrid analysis of the CBP-TIF2 interaction in mammalian cells in vivo. HeLa cells were transfected with 0.2 μg of the GAL4 or GALA-CBP (expressing CBP residues 1872 to 2165) expression vectors together with 0.2 μg of the VP16 or VPI6-TF2 expression vectors in the presence of 2 μg of (17m)5-TATA-CAT reporter plasmid. Fold induction relative to the GAL-CBP activity is indicated. The mean of three experiments is shown; in each case, values varied by less than ±20%.
HeLa cells were transfected with 0.2 μg of GAL4 or GAL-CBP expression vectors together with 0.2 μg of VP16 or VP16-TIF2.13 expression vectors in the presence of 1 μg of (17m)5-TATA-CAT reporter plasmid. Data are represented as fold induction of the activity seen with GAL-CBP alone. The mean and standard, deviation obtained from ten experiments are shown. The expression levels were confirmed by Western blotting with antibodies directed against GAL4 DBD and VP16 AAD (data not shown).
Furthermore, it was reported that SRC-1, which belongs to the same gene family as TIF2, interacts with CBP and p300 (Kamei, Y. et al., Cell 85:403-414 (1996); Yao, T. P. et al., Proc. Natl. Acad. Sci. USA 93:10626-10631 (1996); Hanstein, B., et al., Proc. Natl. Acad Sci USA 93:11540-11545 (1996)). Using GST-fusion protein-based interaction and animal cell-based two hybrid assays, we therefore analyzed whether TIF2 could also interact with CBP. […] A GST-CBP fusion protein was expressed in E. coli and used for puU-down assays with in vitro translated TIF2 polypeptides (FIG. 7d).

Experiment [6] addresses T3, (His)6-TIF2.1, E. coli-expressed purified recombinant TIF2.1 (human, UniProt Q15596 624-1287).
T3 construct: also called His-tagged TIF2.1; purified TIF2.1 protein; not shown: (His)6 tag of pET15b
T3 sequence: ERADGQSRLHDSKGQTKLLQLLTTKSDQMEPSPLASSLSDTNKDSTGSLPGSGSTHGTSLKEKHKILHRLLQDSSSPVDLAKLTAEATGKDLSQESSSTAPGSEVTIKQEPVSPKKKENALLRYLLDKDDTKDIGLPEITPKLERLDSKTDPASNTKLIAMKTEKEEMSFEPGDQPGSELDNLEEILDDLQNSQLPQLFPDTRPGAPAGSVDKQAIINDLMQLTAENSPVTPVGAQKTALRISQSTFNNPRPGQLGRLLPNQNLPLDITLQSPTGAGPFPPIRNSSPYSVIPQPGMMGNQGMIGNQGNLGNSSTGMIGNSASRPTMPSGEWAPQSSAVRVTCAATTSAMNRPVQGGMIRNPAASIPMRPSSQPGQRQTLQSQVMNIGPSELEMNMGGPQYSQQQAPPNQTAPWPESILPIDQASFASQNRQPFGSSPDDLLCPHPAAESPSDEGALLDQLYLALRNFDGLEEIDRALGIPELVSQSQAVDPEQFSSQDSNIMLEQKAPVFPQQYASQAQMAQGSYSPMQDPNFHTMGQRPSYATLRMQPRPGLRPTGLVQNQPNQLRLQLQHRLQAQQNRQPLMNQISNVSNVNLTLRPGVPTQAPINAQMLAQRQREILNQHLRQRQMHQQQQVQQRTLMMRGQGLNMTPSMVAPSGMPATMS
The experiment in a line: GST interaction assay (not shown).

B1: TIF2.12 (TIF2 amino acids 940-1131) (other)
chain: IGNSASRPTMPSGEWAPQSSAVRVTCAATTSAMNRPVQGGMIRNPAASIPMRPSSQPGQRQTLQSQVMNIGPSELEMNMGGPQYSQQQAPPNQTAPWPESILPIDQASFASQNRQPFGSSPDDLLCPHPAAESPSDEGALLDQLYLALRNFDGLEEIDRALGIPELVSQSQAVDPEQFSSQDSNIMLEQKAP
notes: In-vitro-translated
Consider B1, for which the binding result in experiment [1] and in experiment [2] was “no binding” in each case.

B2: TIF2.8 (TIF2 amino acids 1010-1179) (other)
chain: GPSELEMNMGGPQYSQQQAPPNQTAPWPESILPIDQASFASQNRQPFGSSPDDLLCPHPAAESPSDEGALLDQLYLALRNFDGLEEIDRALGIPELVSQSQAVDPEQFSSQDSNIMLEQKAPVFPQQYASQAQMAQGSYSPMQDPNFHTMGQRPSYATLRMQPRPGLRPT
notes: In-vitro-translated; also called minimal AD1
As for B2, the binding result in experiment [1] and in experiment [2] was “no binding” each time. The “transcriptional activation of GAL4 reporter by GAL4 DBD fusion” value in experiment [3] is “able to activate transcription”. The “increased transactivation relative to parent fragment” value in experiment [3] (Cos-1 cells) is listed as 2 fold; in experiment [3] (HeLa cells) it was 10 fold. Also, in experiment [4], the “binding to NRs (ER, RARα LBDs)” value was “cannot bind NRs”.

B3: TIF2.13: TIF2 fragment Pro1011 to Ser1122 (protein, UniProt Q15596 1011-1122, looked up, fragment)
chain: PSELEMNMGGPQYSQQQAPPNQTAPWPESILPIDQASFASQNRQPFGSSPDDLLCPHPAAESPSDEGALLDQLYLALRNFDGLEEIDRALGIPELVSQSQAVDPEQFSSQDS
Turning to B3, the “interaction with GAL-CBP, two hybrid” value in experiment [5] is “also interacted with CBP in vivo”. Also, the “transcriptional activation of GAL4 reporter by GAL4 DBD fusion” value in experiment [3] is “potent transcriptional activity”.

B4: GST-hTAFII55 (printed hTAFn55) (other, human, UniProt Q15545 1-349, looked up)
chain: MSKSKDDAPHELESQFILRLPPEYASTVRRAVQSGHVNLKDRLTIELHPDGRHGIVRVDRVPLASKLVDLPCVMESLKTIDKKTFYKTADICQMLVSTVDGDLYPPVEEPVASTDPKASKKKDKDKEKKFIWNHGITLPLKNVRKRRFRKTAKKKYIESPDVEKEVKRLLSTDAEAVSTRWEIIAEDETKEAENQGLDISSPGMSGHRQGHDSLEHDELREIFNDLSSSSEDEDETQHQDEEDINIIDTEEDLERQLQDKLNESDEQHQENEGTNQLVMGIQKQIDNMKGKLQETQDRAKRQEDLIMKVENLALKNRFQAVLDELKQKEDREKEQLSSLQEELESLLEK
notes: not shown: glutathione-S-transferase (GST)
Regarding B4, the binding result in experiment [6] was “no binding”.

B5: GST-hTAFII20 (printed hTAFn20) (other, human, UniProt Q16514 1-161, looked up)
chain: MNQFGPSALINLSNFSSIKPEPASTPPQGSMANSTAVVKIPGTPGAGGRLSPENNQVLTKKKLQDLVREVDPNEQLDEDVEEMLLQIADDFIESVVTAACQLARHRKSSTLEVKDVQLHLERQWNMWIPGFGSEEIRPYKKACTTEAHKQRMALIRKTTKK
notes: as for B4
As for B5, the binding result in experiment [6] is “no binding”.
